Laboratory results from patent US20210130420A1, “RECOMBINANT BINDING PROTEINS TARGETING HER2 AND SERUM ALBUMIN, AND THEIR USES” (Molecular Partners AG, priority 2016, published 2021).
Where “and” joins values, the source holds several entries; their conditions need not be identical. Equal entries are not always repeated.

Columns and labels:
[1] = biological target: human HER2 and human serum albumin (Homo sapiens, UniProt P02768+P04626); experiment: Surface plasmon resonance simultaneous binding
[2] = system: SKBR-3, SKOV-3, NCI-N87, ZR-75-30, HCC1419, or MDA-MB175; experiment: Proliferation inhibition on a variety of cancer cell-lines; assay type: cell-based
[3] = Pharmacokinetic analysis in cynomolgus monkey; assay type: in vivo
Protocol: The measurements shown in this example are the result of a half-life engineering effort as described in Example 11. Protein #21-His, Protein #23-His, and Protein #24-His were expressed and purified as described in Example 1. The pharmacokinetic properties of the proteins were assessed in cynomolgus monkey. Proteins were administered via intravenous infusion for 30 min at a target dose level of between 1 mg/kg to cynomolgus monkeys. Blood samples were collected pre-dose and again at selected time points, for example 5 min, 10 min, 0.5 hours, 1 hour, 2 hours, 4 hours, 8 hours, 12 hours, 24 hours, 48 hours, 72 hours, 96 hours, 120 hours, 144 hours, 168 hours, 192 hours, 216 hours, and 240 hours post-end of infusion (i.e. post-injection). The blood samples were allowed to stand at room temperature and were centrifuged to generate serum, followed by storage at −80° C. pending analyses. Pharmacokinetic parameters were determined using procedures well known to the person skilled in the art. Serum concentrations of proteins were determined by sandwich ELISA using a rabbit monoclonal anti-designed ankyrin repeat domain antibody as capture reagent and murine monoclonal anti-designed ankyrin repeat domain antibody as detection reagent, and using a standard curve. Pharmacokinetic parameters were determined using standard software such as Phoenix WinNonLin (Certara, Princeton, USA) or Graph Pad Prism (GraphPad Software, La Jolla, USA) and standard analyses such as non-compartmental analyses. […] Target mediated clearance is well-known to the person skilled in the art and is known from e.g. antibodies targeting HER2.
Similarly, Protein #21-His was expressed and purified as described in Example 1. The pharmacokinetic properties of the proteins were assessed in cynomolgus monkey as described above at 1 mg/kg, 5 mg/kg and 10 mg/kg.
Similar results are observed when testing Protein #21 (expressed and purified as described in Example 1). The pharmacokinetic properties of the proteins are assessed in cynomolgus monkey as described above at 1 mg/kg, 10 mg/kg and 100 mg/kg. Pharmacokinetic parameters are evaluated as described above.
For the studies in this example Protein #21-His, Protein #24-His, Protein #28-His, Protein #29-His, and Protein #30-His were prepared according to Example 1. Protein #28-His was additionally PEGylated using a 40 kDa PEG moiety (NOF Sunbright GL2-400MA) by maleimid coupling of the PEG-moiety onto the free C-terminal cysteine of Protein #28-His, followed by purification to homogeneity using standard purification methods, procedures well known to the person skilled in the art. Pharmacokinetic analyses in mouse or cynomolgus monkey were performed as described in Examples 8 and 9.

[4] = Thermal stability by circular dichroism; assay type: physicochemical; conditions: 0.4 μM in PBS
Protocol: Protein #21 was expressed and purified as described in Example 1. Thermal stability was evaluated using circular dichroism using a Jasco J-815 CD spectrometer in a nitrogen atmosphere (3 L/min). Protein #21 at 0.4 μM in PBS in 117.100F-QS cuvettes (Hellma, d=1 cm) with in-solution temperature control sensors were measured, heating from 20° C. to 95° C. (below 45° C.: +3° C./min; above 45° C.: +1° C./min recording the signal at 222 nm, a 1 min delay at 95° C. and a subsequent cooling phase (inverted program compared to heating phase). The CD signal was normalized to mean residual ellipticity (MRE) with the unit deg cm2 dmol-1. Additionally, the far-UV CD spectrum was recorded.

HER3 = experiment: Phosphorylation state ELISA, BT474 cells; assay type: cell-based, human; conditions: 100 nM, 18 hours
HER2 [5] = biological target: T1, HER2 (Homo sapiens, UniProt P04626); experiment: Phospho-proteome mass spectrometry of BT474 cells; assay type: cell-based; set-up: host or cells: BT474; conditions: 100 nM, 18 hours
Text: Protein #21 was expressed and purified as described in Example 1. […] Cells were then subjected to a phospho-proteome mass-spectrometry analysis as described by Britton, D., et al. (Britton, D., Zen, Y., Quaglia, A., Selzer, S., Mitra, VI., Lössner, C., Jung, S., Bohm, G., Schmid, P., Prefot, P., Hoehle, C., Koncarevic, S., Gee, J., Nicholson, R., Ward, M., Castellano, L., Stebbing, J., Zucht, H. D., Sarker, D., Heaton, N., and Pike, I., 2014. PLOS One 9 (3), e90948).

HER2 [6] = biological target: T1, HER2; experiment: Phosphorylation state ELISA, BT474 cells; assay type: cell-based; set-up: BT474 cells were treated for 18 hours with either Protein #21 (100 nM); host or cells: BT474; conditions: 100 nM, 18 hours

B1: Protein #21: SEQ ID NO: 21; HER2 binding domains (SEQ ID NOs: 16, 17) flanked by two serum albumin binding domains (SEQ ID NO: 14), SEQ ID NO: 9 linkers (protein)
chain: GSDLGKKLLEAARAGQDDEVRELLKAGADVNAKDYFSHTPLHLAARNGHLKIVEVLLKAGADVNAKDFAGKTPLHLAANEGHLEIVEVLLKAGADVNAQDIFGKTPADIAADAGHEDIAEVLQKAAGSPTPTPTTPTPTPTTPTPTPTGSDLGIKLLFAAAKGQDDEVRELLKAGADVNAKDFQGVTPLHIAAQSGHLEIVEVLLKAGADVNAKDVTGDTPLHLAAQHGHLEIVEVLLKAGADVNAQDERGWTPADLAADWGHEDIAEVLQKAAGSPTPTPTTPTPTPTTPTPTPTGSDLGKKLLEAARAGQDDEVRELLKAGADVNAKDEYGLTPLYLATAHGHLEIVEVLLKAGADVNAVDAIGFTPLHLAAFIGHLEIAEVLLKAGADVNAQDKFGKTPADIAAGAGNEDIAEVLQKAAGSPTPTPTTPTPTPTTPTPTPTGSDLGKKLLEAARAGQDDEVRELLKAGADVNAKDYFSHTPLHLAARNGHLKIVEVLLKAGADVNAKDFAGKTPLHLAANEGHLEIVEVLLKAGADVNAQDIFGKTPADIAADAGHEDIAEVLQKAA
modifications: Protein comprising four designed ankyrin repeat domains
[1]
  simultaneous binding of human HER2 and human serum albumin: can bind human HER2 and human serum albumin simultaneously
[2]
  proliferation inhibition on cancer cell-lines: strong proliferation inhibition
[3]; 1 mg/kg, 10 mg/kg and 100 mg/kg
  dose dependence of the terminal half-life: dose dependent increase
[3]; 5 mg/kg doses
  pharmacokinetic properties compared to PEGylated Protein #28: markedly improved pharmacokinetic properties
[3]; 100 mg/kg
  terminal half-life: 109.5 h and 130.6 h
[4]
  temperature above which loss of signal at 222 nm is detected: above 78 °C
HER3
  HER3 Pan-Phospho-Tyrosine: 0.45 fold change to PBS
HER2 [5]
  HER2 S1073/S1078/S1083 phosphorylation: 0.35 fold change to PBS
  HER2 S1174 phosphorylation: 0.59 fold change to PBS
  HER2 T772 phosphorylation: 10.27 fold change to PBS
  HER2 T1172/S1174 phosphorylation: 0.44 fold change to PBS
  HER2 T1240 phosphorylation: 0.09 fold change to PBS
  HER2 Y1139/S1151 phosphorylation: 0.88 fold change to PBS
HER2 [6]
  HER2 Pan-Phospho-Tyrosine: 0.04 fold change to PBS
